Reference: patent publication US11155586B2, “Cystine knot scaffold platform” (Genentech, Inc., priority 2015, dated 2021)
No end group written: not given here.

Target: Wnt1 signaling (Homo sapiens)
Experiment: Wnt luciferase reporter assay in HEK293 cells, Wnt1
Format: cell-based
Description: HEK293 cells stably transfected with a firefly luciferase Wnt reporter (Gong et al. (2010) PLoS ONE 59: e12682). and pRL-SV40 Renilla luciferase (Promega) were grown to 90% confluence in DMEM:F12 (50:50) supplemented with 10% FBS, 2 mM GLUTAMAX™ and 40 μg/ml hygromycin. Cells were incubated in a 5% CO2 humidified incubator at 37° C. for 24 h. Following the incubation, the cells were trypsinized (0.05% Gibco 15400-54 in PBS) then diluted to 4×10^5 cells/ml in DMEM:F12 (50:50) supplemented with 10% FBS, 2 mM GLUTAMAX™. 20,000 cells were loaded into individual wells of white microtest 96-well optilux plates (catalog no. 353947) and incubated for ˜24 h. Each well was transfected using FUGENE® HD with Wnt1-pCDNA3.2 (5 ng/well) or Wnt3a-pCDNA3.2 (25 ng/well) then grown for 24 h. […]
Luciferase response in all assays was then measured with Promega's DUAL-GLO® kit according to the manufacturer's instructions, except using half the volume of each reagent. Firefly luminescence and Renilla luminescence were measured on a Perkin Elmer ENVISION™ Multilabel Reader. The ratios of firefly luminescence: Renilla luminescence were calculated and normalized to the ratio in control cells expressing or treated with the indicated Wnt protein. […] Statistical significance was determined using the Holm-Sidak method, with alpha=5.000%.

Sequence of Wnt1 signaling (Homo sapiens) (O75581 20-1613): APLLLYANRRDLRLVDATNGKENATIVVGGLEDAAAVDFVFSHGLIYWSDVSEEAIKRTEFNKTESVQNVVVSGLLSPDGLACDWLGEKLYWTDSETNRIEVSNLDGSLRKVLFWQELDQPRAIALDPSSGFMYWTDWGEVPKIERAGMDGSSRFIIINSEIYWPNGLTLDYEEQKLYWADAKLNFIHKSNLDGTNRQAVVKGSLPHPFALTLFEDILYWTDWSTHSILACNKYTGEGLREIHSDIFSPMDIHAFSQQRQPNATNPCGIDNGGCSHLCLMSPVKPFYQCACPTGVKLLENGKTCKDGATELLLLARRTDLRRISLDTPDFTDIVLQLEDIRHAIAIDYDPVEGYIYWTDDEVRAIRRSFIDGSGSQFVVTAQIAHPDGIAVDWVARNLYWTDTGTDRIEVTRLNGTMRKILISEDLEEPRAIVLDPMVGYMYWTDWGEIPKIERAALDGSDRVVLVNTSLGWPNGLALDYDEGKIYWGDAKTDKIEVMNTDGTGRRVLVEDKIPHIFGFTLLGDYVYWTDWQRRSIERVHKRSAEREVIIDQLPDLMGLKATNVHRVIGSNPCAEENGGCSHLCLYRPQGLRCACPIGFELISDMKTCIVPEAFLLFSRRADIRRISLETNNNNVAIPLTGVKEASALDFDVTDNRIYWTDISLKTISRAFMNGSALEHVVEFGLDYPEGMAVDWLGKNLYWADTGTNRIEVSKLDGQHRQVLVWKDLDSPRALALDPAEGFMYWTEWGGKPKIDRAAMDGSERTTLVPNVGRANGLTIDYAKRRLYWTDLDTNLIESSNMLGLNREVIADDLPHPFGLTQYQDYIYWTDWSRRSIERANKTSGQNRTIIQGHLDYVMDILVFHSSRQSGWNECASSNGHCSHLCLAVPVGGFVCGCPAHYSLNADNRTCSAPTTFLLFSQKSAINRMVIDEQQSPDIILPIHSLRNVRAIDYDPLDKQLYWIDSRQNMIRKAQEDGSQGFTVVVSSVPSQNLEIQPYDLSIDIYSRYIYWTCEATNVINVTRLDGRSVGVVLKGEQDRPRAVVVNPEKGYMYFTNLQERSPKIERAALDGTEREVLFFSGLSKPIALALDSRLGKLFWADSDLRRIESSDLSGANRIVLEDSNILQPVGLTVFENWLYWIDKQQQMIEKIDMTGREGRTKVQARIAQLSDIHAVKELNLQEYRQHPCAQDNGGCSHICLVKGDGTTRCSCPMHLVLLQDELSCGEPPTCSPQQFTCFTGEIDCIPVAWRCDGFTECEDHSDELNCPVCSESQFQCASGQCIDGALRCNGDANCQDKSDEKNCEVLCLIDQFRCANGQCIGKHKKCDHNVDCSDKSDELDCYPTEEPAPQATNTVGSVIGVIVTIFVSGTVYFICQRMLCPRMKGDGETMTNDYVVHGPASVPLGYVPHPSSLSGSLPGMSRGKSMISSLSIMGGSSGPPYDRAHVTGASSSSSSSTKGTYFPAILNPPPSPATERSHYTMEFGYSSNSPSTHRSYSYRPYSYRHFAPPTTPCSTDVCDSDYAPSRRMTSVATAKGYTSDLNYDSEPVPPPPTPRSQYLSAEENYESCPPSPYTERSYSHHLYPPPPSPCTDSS

selectivity for Wnt1 over Wnt3a signaling: 11 fold
Substance: R19: LRP6 E1E2-binding EETI-II variant generated in soluble folded form (GCSNRVKVRACKQDSDCLAGCVCGPNGFCG; ends and bridges not checked; also: three disulfides, pairing not given here)
